Results on three molecules are retold here after patent publication US20030027981A1, “Urokinase-type plasminogen activator receptor” (priority 1989, published 2003).

The subject of one test is HT-1080 cells. The test is described as follows: Plasmin release from plasmin-loaded HT-1080 cells. The settings on record: 1 mM tranexamic acid added to the serum-containing medium. The format is cell-based, human. The procedure: FIG. 24. Plasmin release from HT-1080 cells into serum-free and serum-containing media. Confluent layers of HT-1080 cells were first loaded with plasmin by incubation for 1 hour at 37° C. in serum-free MEM medium (0.5 ml) containing human plasmin (0-5 μg/ml). After rinsing the cell layers three times, they were incubated for 2 hours at 37° C. with either serum-free medium (∘ - - - ∘), medium containing 10% heat-inactivated and plasminogen-depleted fetal calf serum (● - - - ●), or the latter with tranexamic acid (100 μM) (▪ - - - ▪). Plasmin was then assayed in the cell-bound fraction (A) and the media (B). At the time of transfer to new media, there was approximately 28 ng of plasmin bound to the cells from the pretreatment with 2.5 μg of plasmin/well.
In the Examples concerning plasmin binding to cells from medium, human plasmin (approximately 18 CU/mg; Kabi Diagnostica, Stockholm, Sweden) was added to the cultures at final concentrations of 0-5 μg/ml. The cells were incubated for 3 hours at 37° C. before assay of cell-bound and supernatant plasmin (see below). For plasmin release experiments, cells were loaded for 1 hour at 37° C. with 0-5 μg/ml plasmin in serum-free medium, then rinsed three times with MEM.
Plasmin bound to the cell layer was recovered and assayed as follows. After harvest of culture medium, the cells were rinsed three times with PBS (plasmin assays of further rinses were negative); then the bound plasmin was specifically eluted (Miles, L. A., and E. F. Plow, “Binding and activation of plasminogen on the platelet surface”, J. Biol. Chem. 260: 4303-4311, 1985) with a solution of 1 mM tranexamic acid in the same rinsing solution (150 μl/well). Plasmin activity was assayed in eluate samples (50 μl) as above with an incubation time of 3 hours at 37° C. Tranexamic acid at 1 mM had no effect on the thioesterase activity of plasmin in these assays.

A further test has as its system cultured cells. The settings on record: plasminogen, cultured cells; cited from earlier work.
In another test the target is u-PAR (Homo sapiens, UniProt Q03405). Briefly: Chemical cross-linking of 125I-ATF to purified u-PAR. The settings on record: unlabelled reagent 100 nM, u-PAR approx. 1 nM, 125I-ATF approx. 1 nM. In kind it is binding. How it is done: B) Affinity column eluate was diluted to yield an approximate concentration of u-PAR of 1 nM during the assay. The samples were preincubated alone (lane 2) or in the presence of the following unlabelled reagents at a concentration of 100 nM: bovine serum albumin (lane 3), t-PA (lane 4), plasminogen (lane 5), murine epidermal growth factor (lane 6), ATF (lane 7), active 54 kD u-PA (lane 8), DFP-inactivated 54 kD u-PA (lane 9). After preincubation for 15 min at room temperature, ^125I-labelled ATF (approximately 1 nM) was added, followed by incubation for 1 hour at 4° C. After incubation, chemical cross-linking was performed with DSS, after which the samples were analyzed by SDS-PACE on a 6-16% gradient gel under non-reducing conditions and autoradiography. […] Electrophoretic mobilities of molecular weight standard proteins are inducated (kD).
Cross-linking of u-PAR in complex mixtures or purified fractions to ^125I-labelled ATF was performed as described for solubilized receptor (Nielsen et al., 1988), except that 2 mM disuccinimidylsuberate (DSS) was used for cross-linking. Cross-linking of purified u-PAR to DFP-treated u-PA for analysis by SDS-PAGE and silver-staining was performed in the same manner, except that non-labelled DFP-treated u-PA was used as the ligand.

The target in a further test is thrombospondin (Homo sapiens, UniProt P07996). The settings on record: purified thrombospondin; cited from earlier work.
In another test the target is laminin. The settings on record: immobilized laminin; cited from earlier work.
Another test deals with uPAR-bound u-PA (Homo sapiens, UniProt P00749). The format is cell-based. The procedure:
U937 cells were grown in suspension in RPMI 1640 medium supplemented with 5% heat-inactivated fetal calf serum. PMA-stimulation of U937 cells was performed at a cell density of […] cells/ml with 150 nM PMA for 4 days. The adherent cell population was harvested with a rubber scraper and resuspended in PBS. […] The effect of PAI's on the activity of cell-bound u-PA was determined by the addition of varying concentrations of PAI-1 (0.18-18.4 nM) or PAI-2 (1.13-56.7 nM) to the incubations at the same time as the addition of plasminogen. Curves were then constructed of plasmin concentration against time. […] [pln]∞ was calculated from the relationship: [[…]]0) equation.2 where Δ[pln]0 is the initial rate of plasmin generation which was determined in control incubations in the absence of inhibitors. […] Association rate constants (second-order rate constants) were calculated from the slope of the line of double reciprocal plots of kapp against inhibitor concentration.

Like-named read-outs stand apart in the source and are kept apart here.

Sequence of thrombospondin (P07996 19-1170): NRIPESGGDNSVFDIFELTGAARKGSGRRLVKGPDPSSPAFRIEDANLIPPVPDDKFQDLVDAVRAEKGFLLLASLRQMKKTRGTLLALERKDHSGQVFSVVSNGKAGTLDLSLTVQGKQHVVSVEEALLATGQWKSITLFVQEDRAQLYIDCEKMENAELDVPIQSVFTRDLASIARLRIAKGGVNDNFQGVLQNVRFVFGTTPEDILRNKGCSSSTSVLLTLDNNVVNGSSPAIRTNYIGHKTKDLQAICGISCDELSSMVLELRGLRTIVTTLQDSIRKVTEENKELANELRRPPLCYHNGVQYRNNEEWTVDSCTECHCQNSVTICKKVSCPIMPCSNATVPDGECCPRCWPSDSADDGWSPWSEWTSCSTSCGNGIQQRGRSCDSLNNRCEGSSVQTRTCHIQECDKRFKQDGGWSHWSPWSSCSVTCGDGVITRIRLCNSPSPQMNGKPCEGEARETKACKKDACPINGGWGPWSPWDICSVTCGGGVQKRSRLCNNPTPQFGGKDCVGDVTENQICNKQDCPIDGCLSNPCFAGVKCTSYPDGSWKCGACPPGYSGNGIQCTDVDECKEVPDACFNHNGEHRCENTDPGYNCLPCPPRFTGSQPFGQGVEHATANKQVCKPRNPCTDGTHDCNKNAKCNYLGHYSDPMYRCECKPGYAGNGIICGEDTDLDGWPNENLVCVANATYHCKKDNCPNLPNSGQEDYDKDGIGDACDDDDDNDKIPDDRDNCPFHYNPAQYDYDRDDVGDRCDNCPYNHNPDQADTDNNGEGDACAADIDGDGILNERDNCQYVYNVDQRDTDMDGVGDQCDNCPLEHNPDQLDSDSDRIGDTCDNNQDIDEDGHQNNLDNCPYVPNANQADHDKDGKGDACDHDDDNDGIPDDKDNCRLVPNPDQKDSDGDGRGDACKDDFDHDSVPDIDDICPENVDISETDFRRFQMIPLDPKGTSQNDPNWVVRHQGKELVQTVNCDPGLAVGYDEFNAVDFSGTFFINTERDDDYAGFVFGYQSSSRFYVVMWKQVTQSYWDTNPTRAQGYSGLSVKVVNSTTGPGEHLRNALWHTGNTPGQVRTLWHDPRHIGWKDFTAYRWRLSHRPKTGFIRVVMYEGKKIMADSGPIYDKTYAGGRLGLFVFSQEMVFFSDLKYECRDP

On to `NC[C@H]1CC[C@H](C(=O)O)CC1` [TA, tranexamic acid], for which the “Plasmin activity recovered from the cells” value in the test on HT-1080 cells is recorded as “no plasmin activity could be recovered from the cells”.
“Plg: native human plasminogen (glutamic acid N-terminal) purified from human plasma on lysine-Sepharose”: the Kd – broadly, the free concentration of one partner at which half of the binding sites on the other are occupied at equilibrium, for simple one-to-one binding – in the test with cultured cells is 1000 nM; in the test with thrombospondin it was 35 nM; at laminin, 3 nM. Besides, in the test with u-PAR, the “Competition for binding and cross-linking of 125I-labelled ATF to purified u-PAR” value is “no competition”.

B1: PAI-2: human type-2 plasminogen activator inhibitor purified from U937 cells (protein, UniProt P05120 1-415, looked up)
Plasminogen activator …: MEDLCVANTLFALNLFKHLAKASPTQNLFLSPWSISSTMAMVYMGSRGSTEDQMAKVLQFNEVGANAVTPMTPENFTSCGFMQQIQKGSYPDAILQAQAADKIHSSFRSLSSAINASTGNYLLESVNKLFGEKSASFREEYIRLCQKYYSSEPQAVDFLECAEEARKKINSWVKTQTKGKIPNLLPEGSVDGDTRMVLVNAVYFKGKWKTPFEKKLNGLYPFRVNSAQRTPVQMMYLREKLNIGYIEDLKAQILELPYAGDVSMFLLLPDEIADVSTGLELLESEITYDKLNKWTSKDKMAEDEVEVYIPQFKLEEHYELRSILRSMGMEDAFNKGRANFSGMSERNDLFLSEVFHQAMVDVNEEGTEAAAGTGGVMTGRTGHGGPQFVADHPFLFLIMHKITNCILFFGRFSSP
Regarding B1, the “Rate of inhibition of cell-bound u-PA relative to u-PA in solution” value with uPAR-bound u-PA (U937 cells) was “approximately 60%”. Further, the Association rate constant worked out at 110000 M⁻¹ s⁻¹ in the test with uPAR-bound u-PA (u-PA bound to uPAR on PMA-stimulated U937 cells) and 330000 M⁻¹ s⁻¹ with uPAR-bound u-PA (u-PA bound to uPAR on U937 cells).
